Source: US20090226370A1

Molecular target: RFP-fused mouse full length COMP expressed in RCS cells (pDsRed1-N1-COMP) (mouse) (UniProt Q9R0G6)
Experiment: cell-based or functional assay

Sequence of UniProt Q9R0G6 (Q9R0G6 20-755): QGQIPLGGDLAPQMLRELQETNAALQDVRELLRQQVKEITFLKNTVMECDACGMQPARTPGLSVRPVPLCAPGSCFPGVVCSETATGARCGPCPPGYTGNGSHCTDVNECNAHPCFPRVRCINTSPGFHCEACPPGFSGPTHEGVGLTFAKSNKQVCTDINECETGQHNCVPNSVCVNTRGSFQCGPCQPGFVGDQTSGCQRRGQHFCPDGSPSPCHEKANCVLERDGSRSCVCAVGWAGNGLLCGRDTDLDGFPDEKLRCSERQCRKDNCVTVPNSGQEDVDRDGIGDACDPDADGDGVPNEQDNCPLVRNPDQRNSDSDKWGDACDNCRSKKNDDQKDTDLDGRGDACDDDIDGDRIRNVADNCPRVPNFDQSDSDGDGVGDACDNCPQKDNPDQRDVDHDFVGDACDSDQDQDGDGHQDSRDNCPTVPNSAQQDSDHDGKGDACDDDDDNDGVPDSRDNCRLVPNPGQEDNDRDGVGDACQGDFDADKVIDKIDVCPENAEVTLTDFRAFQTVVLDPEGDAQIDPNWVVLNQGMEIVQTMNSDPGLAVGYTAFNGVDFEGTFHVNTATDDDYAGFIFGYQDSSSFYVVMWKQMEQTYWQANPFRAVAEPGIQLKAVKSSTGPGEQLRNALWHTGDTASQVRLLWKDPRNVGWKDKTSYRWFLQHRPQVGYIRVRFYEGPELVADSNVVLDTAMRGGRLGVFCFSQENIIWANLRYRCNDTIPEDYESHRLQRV

“GFP-linked GEP expressed in RCS cells (pEGFP-GEP) (ligand)” showed an enhancement of GEP-mediated stimulation of RCS cell proliferation by coexpression of COMP, day 2 (viable cell count) of 2.3 fold, an enhancement of GEP-mediated stimulation of RCS cell proliferation by coexpression of COMP, day 3 (viable cell count) of 2.1 fold and an enhancement of GEP-mediated stimulation of RCS cell proliferation by coexpression of COMP, day 4 (viable cell count) of 1.7 fold. For the same substance, the enhancement of GEP-mediated stimulation of RCS cell proliferation by coexpression of COMP, day 5 (viable cell count) was 1.5 fold.
